Assay: yeast display, Sf9 membrane polyspecificity reagent, FACS + sequencing; frameworks hold sequencing errors
How it was run: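 Nanobodies came from a synthetic yeast display library in Saccharomyces cerevisiae BJ5465, induced with galactose for 36–48 hours and stained for 1 hour at 4 °C with 10% biotinylated, detergent-solubilized Sf9 membrane reagent. Cells were enriched on streptavidin microbeads and then FACS-sorted, with low and high (top ~1%) gates set on anti-HA fluorescence for expression and streptavidin fluorescence for reagent binding. Each polyreactivity label reflects the gate a clone came from. Genes were amplified by colony PCR, sequenced by MiSeq 2 × 250 and filtered by CDR length.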

With “QVQLVESGGGLVQAGGSLRLSCAASGSTFYINAMGWYRQAPGKEREFVAAITSRGGSTYYADSVKGRFTISRDNAKNTVYLQMNSLKPEDTAVYYCAARNFLSRRGTYDYWGQGTQVTVSS” the “polyreactivity (PSR sort gate)” value was “high polyreactivity”.

For “QVQLVESGGGLVQAGGSLRLSCAASGSTFYINAMGWYRQAPGKERELVAAISWSTTITYYADSVKGRFTISRDNAKNTVYLQMNSLKPEDTAVYYCAAEEEYWDYSGGGYWGQGTQVTVSS”, the “polyreactivity (PSR sort gate)” value was “high polyreactivity”.

With “QVQLVESGGGLVQAGGSLRLSCAASGSTFYIYAMGWYRQAPGKERELVAAITSGGNTYYADSVKGRFTISRDNAKNTVYLQMNSLKPEDTAVYYCAAELYDRWSRMDYWGQGTQVTVSS” the “polyreactivity (PSR sort gate)” value was “low polyreactivity”.

In the case of “QVQLVESGGGLVQAGGSLRLSCAASGSTFYIYAMGWYRQAPGKERELVAAITWSGGRTFYADSVKGRFTISRDNAKNTVYLHMNSLKPEDTAVYFCSARFWSDKTGSRYYYWGQGTQVTVSS”, the “polyreactivity (PSR sort gate)” value is reported as “high polyreactivity”.

With “QVQLVESGGGLVQAGGSLRLSCAASGSTFYKYAMGWYRPAPGKERELVAAISRGGSTYYADSVKGRFTISRDNAKNTVYLQMNSLKPEDTAVYYCAALYGLGRPQDSTFLFDYWGQGTQVTVSS” the “polyreactivity (PSR sort gate)” value was “low polyreactivity”.

In the case of “QVQLVESGGGLVQAGGSLRLSCAASGSTFYLNAMGWYRQAPGKERELVAAINGSGGSTYADSVKGRFTISRDNAKNTVYLQMNSLKPEDTAVYYCAADGTGYPGYSYPGNDYDYWGQGTQVTVSS”, the “polyreactivity (PSR sort gate)” value is reported as “low polyreactivity”.

For “QVQLVESGGGLVQAGGSLRLSCAASGSTFYLNAMGWYRQAPGKERELVAAITVSGGSTYYADSVKGRFTISRDNAKNTVYLQMNSLKPEDTAVYYCARELLSPTYPRWYYYWGQGTQVTVSS”, the “polyreactivity (PSR sort gate)” value was “low polyreactivity”.

In the case of “QVQLVESGGGLVQAGGSLRLSCAASGSTFYLNDMGWYRQAPGKERELVAAIDWSGGSTYYADSVKGRFTISRDNAKNTVYLQMNSLNPEDTAVYYCAARLVYEWRRLDYFIAWDYWGQGTQVTVSS”, the “polyreactivity (PSR sort gate)” value is reported as “low polyreactivity”.

For “QVQLVESGGGLVQAGGSLRLSCAASGSTFYLYAMGWYRQAPGKERELVADISWDGDSTYYADSVKGRFTISRDNAKNTVYLQMNSLKPEDTAVYYCAADYFYYYEQYLWYTYDYWGQGTQVTVSS”, the “polyreactivity (PSR sort gate)” value was “high polyreactivity”.

For “QVQLVESGGGLVQAGGSLRLSCAASGSTFYLYAMGWYRQAPGKERELVASITYSGASTYYADSVKGRFTISRDNAKNTVYLQMNSQKPEDTAVYYCAADQRGWFAVGSQRKYNYWGQGTQVTVSS”, the “polyreactivity (PSR sort gate)” value was “low polyreactivity”.

With “QVQLVESGGGLVQAGGSLRLSCAASGSTFYLYGMGWYRQAPGKERELVAAITYSGGSTYYADSVKGRFTISRDNAKNTVYLQMNSLKPEDTAVYYCNARSQWRSSRFYYWGQGTQVTVPS” the “polyreactivity (PSR sort gate)” value was “high polyreactivity”.

For “QVQLVESGGGLVQAGGSLRLSCAASGSTFYNAMGWYIQAPGKERELVAGISRNGGSTRYADSVKGRFTISRDNAKNTVYLQSHSQKPEDTAVSYCAAGYYDYGWDYANDYWGQGTQVTVSS”, the “polyreactivity (PSR sort gate)” value was “low polyreactivity”.

In the case of “QVQLVESGGGLVQAGGSLRLSCAASGSTFYNYAMGWCRLAPGKERELVAATSSGGSTNYADSVKGRFTISRDNAKNTVFLQMISLKPEDNAVYYCARRHRVYPSRIGHDYWGQGTQVTVSS”, the “polyreactivity (PSR sort gate)” value is reported as “low polyreactivity”.

With “QVQLVESGGGLVQAGGSLRLSCAASGSTFYNYAMGWYRQAPGKERELVAAISSGGGITYYADSVKGRFTISRDNAKNTVYLQMNSLKPEDTAVYYCNARRKYLGYNYWGQGSQVTVSS” the “polyreactivity (PSR sort gate)” value was “high polyreactivity”.

With “QVQLVESGGGLVQAGGSLRLSCAASGSTFYNYAMGWYRQAPGKERELVAAISSGGGITYYADSVKGRFTISRDNAKNTVYLQMNSLKPEDTAVYYCNVVNYYPKGNNRAQYWFNYWGQGTQVNVSS” the “polyreactivity (PSR sort gate)” value was “high polyreactivity”.

In the case of “QVQLVESGGGLVQAGGSLRLSCAASGSTFYPNAMGWYRQAPGKEREFVAAITWSGGRTYYADSVKGRFTISRDNAKNTVYLLMNSLKPEDTAVYYCAVGGNSRRYWGQGTQVTVSS”, the “polyreactivity (PSR sort gate)” value is reported as “high polyreactivity”.

With “QVQLVESGGGLVQAGGSLRLSCAASGSTFYPNAMGWYRQAPGKERELVAAISRGTRTKYADSVKGRFTISRDNAKNTVYLQMNSLKPEDTAVYYCAKRYYGSPQLRYYYWGQGTQVTVSS” the “polyreactivity (PSR sort gate)” value was “high polyreactivity”.

In the case of “QVQLVESGGGLVQAGGSLRLSCAASGSTFYPNAMGWYRQAPGKERELVAAISWSGGRTYYADSVKGRFTISRDNAKNTVYLQMNSLKPEDTAVYYCNAARYPSSWYYKLDYWGQGTQVTVSS”, the “polyreactivity (PSR sort gate)” value is reported as “high polyreactivity”.

With “QVQLVESGGGLVQAGGSLRLSCAASGSTFYPYAMGGYRQAPGKERELVARITQNGGSTYYADSVKGRFKISRDNAKNPVYLQMNSLKPEDTAVYYCADRWISVLSYGKYDYCGQGTQVTVSS” the “polyreactivity (PSR sort gate)” value was “high polyreactivity”.

For “QVQLVESGGGLVQAGGSLRLSCAASGSTFYPYAMGWYRQAPGKERELVAAISSGGSTNYADSVKGRFTISRDNAKNTVYLQMNSLKPEDTAVYYCAAEDWSLYDYGDRLWYSPYYYWGQGTQVTVSS”, the “polyreactivity (PSR sort gate)” value was “high polyreactivity”.

In the case of “QVQLVESGGGLVQAGGSLRLSCAASGSTFYPYAMGWYRQAPGKERELVAAISSGGSTSYADSVKGRFTISRDNAKNTFYLQMNSLKPEDTAVYYCNASSPGAVPVYDYDYWGQGTQVTVSS”, the “polyreactivity (PSR sort gate)” value is reported as “low polyreactivity”.

For “QVQLVESGGGLVQAGGSLRLSCAASGSTFYPYAMGWYRQAPGKERELVAAISSSGGSTYYADSVKGRFTISRDNAKNTVYLQMNSLKPEDTAVYYCNADVHSQYDYWGQGTQVTVSS”, the “polyreactivity (PSR sort gate)” value was “low polyreactivity”.

For “QVQLVESGGGLVQAGGSLRLSCAASGSTFYPYAMGWYRQATGKERELVAAISYSGGSKYYADSVKGRFTISRDNAKNTVYLQMNSLKPEDTAVYYCAAYYRVYGASYDYWGQVTQVTVSS”, the “polyreactivity (PSR sort gate)” value was “high polyreactivity”.

With “QVQLVESGGGLVQAGGSLRLSCAASGSTFYPYTMGWYRQAPGKERELVASISTTGGSTNYADSVKGRFTISRDNAKNTVYLQMNSLKPEDTAVYYCAARSNYTRRLYYYYWGLGTQVTVSS” the “polyreactivity (PSR sort gate)” value was “high polyreactivity”.

For “QVQLVESGGGLVQAGGSLRLSCAASGSTFYQNAMGWYRQAPGKERELVAAISGGSDTYYADSVKGRFTISRDNAKNTVYLQMNSLKPEDTAFYYCAADVASSEGKSWTLKDEYDYWGQGTQVTVSS”, the “polyreactivity (PSR sort gate)” value was “low polyreactivity”.

With “QVQLVESGGGLVQAGGSLRLSCAASGSTFYQSVMGWYRQAPGKERELVADITNGGSTYYADSVKGRFTISRDNAKNTVYLQMNSLKPEDTAVYYCAADGGYYWYTYWYGGLYYWGQGTQVTVSS” the “polyreactivity (PSR sort gate)” value was “high polyreactivity”.

With “QVQLVESGGGLVQAGGSLRLSCAASGSTFYRNAMGWYRQAPGKEREFVAAISFRGGGTYADSVKGRFTISRDNAKNTVYLQMNSLKPEDTAVYYCAADYSVYWLDYGYWGQGTQVTVSS” the “polyreactivity (PSR sort gate)” value was “low polyreactivity”.

With “QVQLVESGGGLVQAGGSLRLSCAASGSTFYRNAMGWYRQAPGKERELVAAISRGGSTYYADSVKGRFTISRDNAKNTVYLQMNSLKPEDTAVYYCNTDVNYAGYGWYYYWGQGTQVTVSS” the “polyreactivity (PSR sort gate)” value was “high polyreactivity”.

For “QVQLVESGGGLVQAGGSLRLSCAASGSTFYRNAMGWYRQAPGKERELVAAITSGGSSTYYADSVKVRFTISRDNAKNTVYLQMNSLKPEDTAVYYCAAEPGIYYYWGQGTQVTVSS”, the “polyreactivity (PSR sort gate)” value was “low polyreactivity”.

With “QVQLVESGGGLVQAGGSLRLSCAASGSTFYRNAMGWYRQAPGKERELVATITFNGGSTYYADSVKGRFTISRDNAKNTVYLQMNSLKPEDTAVYYCNTDWRGDPELYDYWGQGTQVTVSS” the “polyreactivity (PSR sort gate)” value was “low polyreactivity”.

With “QVQLVESGGGLVQAGGSLRLSCAASGSTFYRNAMGWYRQAPGKERELVAVITERGGNTYYADSVKGRFTISRDNAKNTVYLQMNSLKPEDTAVYYCNKQGFVDRGRYRYYWGQGTQVTVSS” the “polyreactivity (PSR sort gate)” value was “high polyreactivity”.

— the nanobody polyreactivity screen of Harvey et al. (2022)
